Results from IntAct's records for PubMed 26418745.

B1: ALK tyrosine kinase receptor (Homo sapiens), Q9UM73 (parent)
chain: MGAIGLLWLLPLLLSTAAVGSGMGTGQRAGSPAAGPPLQPREPLSYSRLQRKSLAVDFVVPSLFRVYARDLLLPPSSSELKAGRPEARGSLALDCAPLLRLLGPAPGVSWTAGSPAPAEARTLSRVLKGGSVRKLRRAKQLVLELGEEAILEGCVGPPGEAAVGLLQFNLSELFSWWIRQGEGRLRIRLMPEKKASEVGREGRLSAAIRASQPRLLFQIFGTGHSSLESPTNMPSPSPDYFTWNLTWIMKDSFPFLSHRSRYGLECSFDFPCELEYSPPLHDLRNQSWSWRRIPSEEASQMDLLDGPGAERSKEMPRGSFLLLNTSADSKHTILSPWMRSSSEHCTLAVSVHRHLQPSGRYIAQLLPHNEAAREILLMPTPGKHGWTVLQGRIGRPDNPFRVALEYISSGNRSLSAVDFFALKNCSEGTSPGSKMALQSSFTCWNGTVLQLGQACDFHQDCAQGEDESQMCRKLPVGFYCNFEDGFCGWTQGTLSPHTPQWQVRTLKDARFQDHQDHALLLSTTDVPASESATVTSATFPAPIKSSPCELRMSWLIRGVLRGNVSLVLVENKTGKEQGRMVWHVAAYEGLSLWQWMVLPLLDVSDRFWLQMVAWWGQGSRAIVAFDNISISLDCYLTISGEDKILQNTAPKSRNLFERNPNKELKPGENSPRQTPIFDPTVHWLFTTCGASGPHGPTQAQCNNAYQNSNLSVEVGSEGPLKGIQIWKVPATDTYSISGYGAAGGKGGKNTMMRSHGVSVLGIFNLEKDDMLYILVGQQGEDACPSTNQLIQKVCIGENNVIEEEIRVNRSVHEWAGGGGGGGGATYVFKMKDGVPVPLIIAAGGGGRAYGAKTDTFHPERLENNSSVLGLNGNSGAAGGGGGWNDNTSLLWAGKSLQEGATGGHSCPQAMKKWGWETRGGFGGGGGGCSSGGGGGGYIGGNAASNNDPEMDGEDGVSFISPLGILYTPALKVMEGHGEVNIKHYLNCSHCEVDECHMDPESHKVICFCDHGTVLAEDGVSCIVSPTPEPHLPLSLILSVVTSALVAALVLAFSGIMIVYRRKHQELQAMQMELQSPEYKLSKLRTSTIMTDYNPNYCFAGKTSSISDLKEVPRKNITLIRGLGHGAFGEVYEGQVSGMPNDPSPLQVAVKTLPEVCSEQDELDFLMEALIISKFNHQNIVRCIGVSLQSLPRFILLELMAGGDLKSFLRETRPRPSQPSSLAMLDLLHVARDIACGCQYLEENHFIHRDIAARNCLLTCPGPGRVAKIGDFGMARDIYRASYYRKGGCAMLPVKWMPPEAFMEGIFTSKTDTWSFGVLLWEIFSLGYMPYPSKSNQEVLEFVTSGGRMDPPKNCPGPVYRIMTQCWQHQPEDRPNFAIILERIEYCTQDPDVINTALPIEYGPLVEEEEKVPVRPKDPEGVPPLLVSQQAKREEERSPAAPPPLPTTSSGKAAKKPTAAEISVRVPRGPAVEGGHVNMAFSQSNPPSELHKVHGSRNKPTSLWNPTYGSWFTEKPTKKNNPIAKKEPHDRGNLGLEGSCTVPPNVATGRLPGASLLLEPSSLTANMKEVPLFRLRHFPCGNVNYGYQQQGLPLEAATAPGAGHYEDTILKSKNSMNQPGP
partner: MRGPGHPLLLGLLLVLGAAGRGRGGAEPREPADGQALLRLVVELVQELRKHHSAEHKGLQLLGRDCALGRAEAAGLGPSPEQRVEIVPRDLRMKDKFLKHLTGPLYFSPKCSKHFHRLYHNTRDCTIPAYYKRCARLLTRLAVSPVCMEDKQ

Variants of: B1
Settings: with alkl2_human ALKAL2, Q6UX46

Effect of a mutation on the interaction, disrupting interaction strength:
G893E
G934D
G823D
G740D
